Measured values taken from publication PMC4067145 (Biochemistry, 2014).

What was measured:
[1] = target: T1, full-length human U1A protein (human, UniProt P09012 1-282); assay: ITC
[2] = target: T2, full-length human U2B″ protein (human, UniProt P08579 1-225); assay: ITC
[3] = target: T2, full-length human U2B″ protein; assay: other fluorescence titration
[4] = target: T1, full-length human U1A protein; assay: ITC; remark: listed apart in the source
[5] = target: T1, full-length human U1A protein; assay: other fluorescence titration
[6] = target: T2, full-length human U2B″ protein; assay: ITC; remark: listed apart in the source
[7] = target: T2, full-length human U2B″ protein; assay: other fluorescence titration; remark: listed apart in the source

T2 sequence (P08579 whole entry): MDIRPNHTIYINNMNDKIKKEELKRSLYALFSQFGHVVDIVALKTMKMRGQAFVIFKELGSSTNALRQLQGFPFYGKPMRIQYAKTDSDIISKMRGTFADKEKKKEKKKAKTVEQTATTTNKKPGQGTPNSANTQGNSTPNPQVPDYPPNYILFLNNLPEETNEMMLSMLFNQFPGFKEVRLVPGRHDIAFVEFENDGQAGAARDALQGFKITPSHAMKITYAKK

B1: human U2A′ protein, truncated form that included the first 180 amino acids (LRR domain) (domain or fragment)
chain: MVKLTAELIEQAAQYTNAVRDRELDLRGYKIPVIENLGATLDQFDAIDFSDNEIRKLDGFPLLRRLKTLLVNNNRICRIGEGLDQALPCLTELILTNNSLVELGDLDPLASLKSLTYLSILRNPVTNKKHYRLYVIYKVPQVRVLDFQKVKLKERQEAEKMFKGKRGAQLAKDIARRSKT
[1]
  Kd: 1000 nM
[2]
  Kd: 6 nM
[3]
  Kd: 4.4 nM
[4]
  Kd: 830 nM
[5]
  Kd: 1400 nM
[6]
  Kd: 5.9 nM
[7]
  Kd: 5.1 nM
